Assay results: PMC11446271

Assays:
[1] = system: Pab1p (poly(A)-binding protein) (Saccharomyces cerevisiae); assay: EMSA
[2] = system: Pab1p (poly(A)-binding protein) (Saccharomyces cerevisiae); assay: single-molecule eIF1 dwell time, hyperbolic fit; details: 5' cap, 3' poly(A) tail

Substance	Kd [1] [µM]	Kd [2] [µM]
PAB1 mRNA, non-polyadenylated	0.025	
PAB1 mRNA, capped and poly(A)-tailed		0.013
